Laboratory results reported in paper PMC9723800, “Structural and dynamic basis of DNA capture and translocation by mitochondrial Twinkle helicase” (Nucleic Acids Research, 2022).
Values joined by “and” are separate entries in the source; they are usually repeats but may differ in a detail not shown here. Equal entries are not always repeated.

Experiments:
[1] = target: T1, LcTwinkle (Lates calcarifer, UniProt A0A4W6C5C5); experiment: [gamma-32P]ATP TLC ATPase assay, Michaelis-Menten fit; assay type: biochemical; conditions: 12 mM MgCl2, 1 uM ssDNA, 150 mM KCl, pH 8.0, 20 °C; labelled compound as tracer
T1 construct: gene TWNK; shorter variant (primase-like NTD + helicase CTD), synthesized gene, modified pET28a, N-terminal His tag cut by PreScission; E. coli BL21(DE3); homo-hexamer (also heptamer)
T1 sequence (A0A4W6C5C5 128-683): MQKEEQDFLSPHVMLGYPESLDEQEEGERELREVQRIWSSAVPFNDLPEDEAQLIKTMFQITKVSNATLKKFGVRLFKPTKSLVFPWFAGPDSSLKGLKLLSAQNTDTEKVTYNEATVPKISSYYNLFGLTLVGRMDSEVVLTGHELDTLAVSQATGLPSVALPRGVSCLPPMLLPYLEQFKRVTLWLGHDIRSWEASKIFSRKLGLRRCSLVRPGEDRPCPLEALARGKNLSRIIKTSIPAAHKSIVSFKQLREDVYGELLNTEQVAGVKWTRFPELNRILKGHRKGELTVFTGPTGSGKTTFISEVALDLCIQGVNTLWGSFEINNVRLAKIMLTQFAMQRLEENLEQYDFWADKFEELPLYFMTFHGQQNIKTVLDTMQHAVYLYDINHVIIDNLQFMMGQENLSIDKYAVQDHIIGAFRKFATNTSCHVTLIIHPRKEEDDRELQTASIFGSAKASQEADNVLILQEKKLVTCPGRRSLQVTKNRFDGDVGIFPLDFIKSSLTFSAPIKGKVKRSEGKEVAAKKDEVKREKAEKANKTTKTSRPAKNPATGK

[2] = target: T2, LcTwinkle (Lates calcarifer, UniProt A0A4W6C5C5, E452Q); experiment: cryo-EM structure of LcTwinkle-ssDNA-ATP complex, […] Å; assay type: binding; conditions: 1 mM ATP, 2 mM MgCl2, pH 8.0, five ATP at the subunit interfaces, one Mg2+ each
T2 construct: gene TWNK; shorter variant (primase-like NTD + helicase CTD), synthesized gene, modified pET28a, N-terminal His tag cut by PreScission; E. coli BL21(DE3); homo-hexamer (also heptamer)
T2 sequence (A0A4W6C5C5 128-683 E452Q): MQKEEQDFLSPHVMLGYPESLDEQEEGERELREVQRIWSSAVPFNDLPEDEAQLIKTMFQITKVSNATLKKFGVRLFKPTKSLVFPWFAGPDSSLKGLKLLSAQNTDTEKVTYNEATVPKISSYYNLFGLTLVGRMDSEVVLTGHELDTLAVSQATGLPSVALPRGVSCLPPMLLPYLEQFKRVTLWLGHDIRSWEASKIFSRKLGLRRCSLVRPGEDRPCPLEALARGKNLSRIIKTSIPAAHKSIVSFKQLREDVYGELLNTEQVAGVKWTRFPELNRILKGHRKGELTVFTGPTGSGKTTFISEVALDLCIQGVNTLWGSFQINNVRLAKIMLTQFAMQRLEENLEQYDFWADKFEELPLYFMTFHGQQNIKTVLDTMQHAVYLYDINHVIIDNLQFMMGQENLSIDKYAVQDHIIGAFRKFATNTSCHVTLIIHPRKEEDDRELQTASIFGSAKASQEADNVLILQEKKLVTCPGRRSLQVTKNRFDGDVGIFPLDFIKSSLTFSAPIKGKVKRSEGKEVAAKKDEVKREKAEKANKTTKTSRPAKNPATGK

[3] = target: E325Q LcTwinkle (Lates calcarifer Twinkle helicase, active site mutant) (Lates calcarifer); experiment: cryo-EM structure; apo (DNA-free) classes found by 3D classification in the same sample prepared with ssDNA and ATP: LcTwinkle6 and LcTwinkle7 (8.5 A)
[4] = target: E325Q LcTwinkle (Lates calcarifer Twinkle helicase, active site mutant) (Lates calcarifer); experiment: cryo-EM structure; E325Q LcTwinkle with ssDNA (1:1.5), 1 mM ATP, 2 mM MgCl2, 50 mM Tris pH 8.0, 150 mM KCl, 3 mM DTT; DNA-bound classes (LcTwinkle-DNA 3.5 A, LcTwinkle-DNA2 7.5 A)
[5] = target: WT LcTwinkle (Lates calcarifer Twinkle helicase) (Lates calcarifer); experiment: negative staining EM; 0.02 mg/ml Twinkle in 50 mM Tris pH 8.0, 150 mM KCl, 3 mM DTT, 1 mM ATP, 2 mM MgCl2, ssDNA at 1:2 relative to hexamers; uranyl acetate; 2D classification
[6] = target: T3, LcTwinkle S456A (Lates calcarifer, UniProt A0A4W6C5C5 128-683, S583A); experiment: fluorescence anisotropy; 0.5 mM ATP, 1 mM Mg2+; FA: 25 mM Tris-HCl pH 8.0, 150 mM KCl, 0.5 mM ATP, 1 mM MgCl2, 20 nM Cy5-ssDNA, temperature not stated; SEC/cryo-EM: 50 mM Tris pH 8.0, 150 mM KCl, 3 mM DTT, 1; conditions: protein: recombinant; tags: N-terminal His tag, PreScission-cleaved; chain copies: 6; label: 5'-Cy5; single strand
T3 sequence: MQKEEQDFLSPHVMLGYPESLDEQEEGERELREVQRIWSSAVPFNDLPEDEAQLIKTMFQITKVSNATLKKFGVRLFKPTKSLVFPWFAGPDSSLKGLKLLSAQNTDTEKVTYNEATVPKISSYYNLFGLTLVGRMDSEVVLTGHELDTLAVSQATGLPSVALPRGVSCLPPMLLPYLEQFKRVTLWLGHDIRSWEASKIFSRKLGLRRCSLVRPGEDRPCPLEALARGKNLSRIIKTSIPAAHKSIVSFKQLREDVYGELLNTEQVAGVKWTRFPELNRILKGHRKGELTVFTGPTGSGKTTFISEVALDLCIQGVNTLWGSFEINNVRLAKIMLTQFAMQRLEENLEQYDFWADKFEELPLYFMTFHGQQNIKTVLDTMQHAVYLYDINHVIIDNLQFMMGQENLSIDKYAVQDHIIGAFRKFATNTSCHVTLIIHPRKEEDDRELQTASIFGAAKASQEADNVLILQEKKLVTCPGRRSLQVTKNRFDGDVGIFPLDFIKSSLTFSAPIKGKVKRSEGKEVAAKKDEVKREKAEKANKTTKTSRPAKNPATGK

[7] = target: T4, LcTwinkle H438A (Lates calcarifer, UniProt A0A4W6C5C5 128-683, H565A); experiment: as above; conditions: protein: recombinant; tags: N-terminal His tag, PreScission-cleaved; chain copies: 6; label: 5'-Cy5; single strand
T4 sequence: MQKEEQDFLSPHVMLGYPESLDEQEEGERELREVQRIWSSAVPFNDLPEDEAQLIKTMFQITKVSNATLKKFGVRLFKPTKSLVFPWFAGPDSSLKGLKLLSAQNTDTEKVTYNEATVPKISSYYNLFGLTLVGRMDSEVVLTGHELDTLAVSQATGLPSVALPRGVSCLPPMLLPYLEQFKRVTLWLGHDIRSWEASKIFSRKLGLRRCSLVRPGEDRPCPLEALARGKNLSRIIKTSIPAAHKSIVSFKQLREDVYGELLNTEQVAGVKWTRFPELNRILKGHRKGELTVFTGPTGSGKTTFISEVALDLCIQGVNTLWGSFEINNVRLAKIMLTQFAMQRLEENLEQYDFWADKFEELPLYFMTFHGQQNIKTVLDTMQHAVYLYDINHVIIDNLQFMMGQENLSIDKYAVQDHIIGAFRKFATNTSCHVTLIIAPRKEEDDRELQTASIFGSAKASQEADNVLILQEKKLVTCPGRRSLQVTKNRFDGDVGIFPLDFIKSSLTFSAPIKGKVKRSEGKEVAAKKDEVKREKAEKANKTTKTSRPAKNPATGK

[8] = target: T5, LcTwinkle R440A (Lates calcarifer, UniProt A0A4W6C5C5 128-683, R567A); experiment: as above; conditions: protein: recombinant; tags: N-terminal His tag, PreScission-cleaved; chain copies: 6; label: 5'-Cy5; single strand
T5 sequence: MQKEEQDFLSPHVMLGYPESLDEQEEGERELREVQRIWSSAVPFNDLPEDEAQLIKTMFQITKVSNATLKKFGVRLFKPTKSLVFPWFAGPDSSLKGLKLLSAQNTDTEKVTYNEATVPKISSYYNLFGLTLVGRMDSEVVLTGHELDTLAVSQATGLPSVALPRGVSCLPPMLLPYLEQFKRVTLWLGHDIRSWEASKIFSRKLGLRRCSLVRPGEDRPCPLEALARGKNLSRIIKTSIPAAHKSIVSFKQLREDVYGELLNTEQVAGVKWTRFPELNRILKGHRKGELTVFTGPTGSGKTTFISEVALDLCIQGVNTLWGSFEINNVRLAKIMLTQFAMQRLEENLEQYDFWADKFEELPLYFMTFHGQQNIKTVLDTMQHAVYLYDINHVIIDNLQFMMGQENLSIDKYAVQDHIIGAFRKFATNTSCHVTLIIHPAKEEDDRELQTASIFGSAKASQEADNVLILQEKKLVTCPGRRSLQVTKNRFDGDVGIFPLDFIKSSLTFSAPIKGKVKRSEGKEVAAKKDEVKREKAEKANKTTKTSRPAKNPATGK

[9] = target: T6, LcTwinkle R489A (Lates calcarifer, UniProt A0A4W6C5C5 128-683, R616A); experiment: as above; conditions: protein: recombinant; tags: N-terminal His tag, PreScission-cleaved; chain copies: 6; label: 5'-Cy5; single strand
T6 sequence: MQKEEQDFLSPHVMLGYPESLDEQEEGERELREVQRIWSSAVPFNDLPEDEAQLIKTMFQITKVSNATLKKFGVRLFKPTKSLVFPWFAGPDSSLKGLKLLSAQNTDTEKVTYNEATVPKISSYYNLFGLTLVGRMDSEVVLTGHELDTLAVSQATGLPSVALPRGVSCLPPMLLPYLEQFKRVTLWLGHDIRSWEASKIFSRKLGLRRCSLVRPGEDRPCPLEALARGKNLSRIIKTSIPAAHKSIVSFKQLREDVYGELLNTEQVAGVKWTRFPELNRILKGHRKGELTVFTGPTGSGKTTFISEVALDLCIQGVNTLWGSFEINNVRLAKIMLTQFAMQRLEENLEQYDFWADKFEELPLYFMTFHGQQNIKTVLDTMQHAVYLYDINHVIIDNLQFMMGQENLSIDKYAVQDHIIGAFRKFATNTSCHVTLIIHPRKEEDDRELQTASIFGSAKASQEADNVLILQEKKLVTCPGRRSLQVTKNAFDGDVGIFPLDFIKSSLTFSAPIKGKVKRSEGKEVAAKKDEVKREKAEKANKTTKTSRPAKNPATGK

[10] = target: T7, LcTwinkle E325Q (Lates calcarifer, UniProt A0A4W6C5C5 128-683, E452Q); experiment: cryo-EM structure (3.5 A); 1 mM ATP, 2 mM Mg2+; FA: 25 mM Tris-HCl pH 8.0, 150 mM KCl, 0.5 mM ATP, 1 mM MgCl2, 20 nM Cy5-ssDNA, temperature not stated; SEC/cryo-EM: 50 mM Tris pH 8.0, 150 mM KCl, 3 mM DTT, 1; conditions: protein: recombinant; tags: N-terminal His tag, PreScission-cleaved; chain copies: 6; single strand
T7 sequence: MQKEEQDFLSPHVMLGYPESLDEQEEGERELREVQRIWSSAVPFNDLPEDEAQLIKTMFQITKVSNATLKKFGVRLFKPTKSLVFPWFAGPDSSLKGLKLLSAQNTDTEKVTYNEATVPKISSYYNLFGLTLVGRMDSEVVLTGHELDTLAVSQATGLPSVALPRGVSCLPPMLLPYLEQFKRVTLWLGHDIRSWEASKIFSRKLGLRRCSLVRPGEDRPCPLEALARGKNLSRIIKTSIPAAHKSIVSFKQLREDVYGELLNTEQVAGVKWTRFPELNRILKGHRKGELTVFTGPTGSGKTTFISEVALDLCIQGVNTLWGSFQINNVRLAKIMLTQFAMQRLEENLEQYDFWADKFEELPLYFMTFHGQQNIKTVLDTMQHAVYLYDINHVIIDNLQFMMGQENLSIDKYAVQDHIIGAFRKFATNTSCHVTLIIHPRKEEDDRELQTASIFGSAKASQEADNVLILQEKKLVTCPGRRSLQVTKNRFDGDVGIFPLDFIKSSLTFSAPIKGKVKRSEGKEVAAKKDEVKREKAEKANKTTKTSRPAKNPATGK

Nc1ncnc2c1ncn2[C@@H]1O[C@H](COP(=O)(O)OP(=O)(O)OP(=O)(O)O)[C@@H](O)[C@H]1O [ATP]
KM [1]: The data were fitted to Michaelis–Menten equation with GraphPad | cryo-EM structure of LcTwinkle-ssDNA-ATP complex, 3.5 Å [2]: ATPase sites are located at each of the subunit interfaces (Figure 2A), and five ATP molecules

E325Q LcTwinkle (Lates calcarifer Twinkle helicase, active site mutant) (enzyme)
stoichiometry N [3]: 6 and 7 | stoichiometry N [4]: 6

WT LcTwinkle (Lates calcarifer Twinkle helicase) (enzyme)
stoichiometry N [5]: 6 and 7

GGATTATTTACATTGGCAGATTCACC (ssDNA) [Cy5-ssDNA]
binding result [6]: no binding | binding result [7]: no binding | binding result [8]: no binding | binding result [9]: no binding

TGGTCTTTTTTTTTTTTTTTTTTTTTTTTT (ssDNA) [TGGTC-oligo(dT) ssDNA]
binding result [10]: binds
